We go through one molecule from patent US20230047413A1 (Janssen / Centocor, published 2023).

Assay [1] concerns the target T1, Peptide-7 (human, phosphothreonine 212, phosphoserine 214 (tau 2N4R numbering); SCBiot and dPEG4 at the N-terminus; amide at the C-terminus). As to the kind of experiment: SPR ProteOn, peptide captured, Fab as analyte. On the procedure: (§1) The binding affinity of PT3 Fab towards each of the fourteen tau phosphopeptides shown in Table 6 was assessed by surface plasmon resonance (SPR) using a Bio-Rad ProteOn XPR36. Peptides were synthesized by standard chemical methods (New England Peptide) with short-chain biotin and a PEG4 moiety at the N-terminus. Biotinylated peptide was captured on a neutravidin-coated NLC biosensor chip and PT3 Fab was flowed over the surface to measure kinetic parameters.
(§2) All experiments were performed at 25° C. using phosphate buffered saline, pH 7.4, 0.005% Tween 20 (PBST) as both running buffer and sample dilution buffer. Prior to running samples, the NLC chip was conditioned by running PBST over the chip surface for 1 h. Approximately 5-10 RU of peptide was captured on the chip surface by diluting peptide to 10 ng/mL in PBST and injecting over the flow channels at 30 μL/min for 100 s. Serial dilutions of PT3 Fab (1.1-90 nM) were analyzed and, with the exception of Peptide-8, each concentration was measured in duplicate. After capture of peptides, the antibody titration was injected at 60 μL/min for 3 minutes (association phase), followed by 300 s of buffer only (dissociation phase).
(§3) The data were double referenced by subtraction of the interspot response and the curves generated by the buffer-only injection. The chip surface was regenerated using a single injection of 0.85% phosphoric acid at 30 μL/min for 100 s contact time, followed by four injections of running buffer before the next antibody titration injection. The data processing and kinetic analysis were done using the instrument software. The data were analyzed using a simple Langmuir 1:1 binding model.

The target of a further assay is Peptide-3 (human, phosphoserine 214, phosphothreonine 217 (tau 2N4R numbering); SCBiot and dPEG4 at the N-terminus; amide at the C-terminus). The experiment in a line: SPR ProteOn, peptide captured, Fab as analyte. The method, then: as §1, §2, §3
Chain of Peptide-3 (human, phosphoserine 214, phosphothreonine 217 (tau 2N4R numbering); SCBiot and dPEG4 at the N-terminus; amide at the C-terminus) (peptide, as listed by the source): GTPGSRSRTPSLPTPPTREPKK
Assay [2] concerns the target T2, Peptide-5 (human, phosphoserine 210, phosphoserine 214, phosphothreonine 217 (tau 2N4R numbering); SCBiot and dPEG4 at the N-terminus; amide at the C-terminus). The experiment in a line: SPR ProteOn, peptide captured, Fab as analyte; Peptide-5, phosphorylated at 210/214/217. The method, then:
as §1, §2
(§4) The data were double referenced by subtraction of the interspot response and the curves generated by the buffer-only injection. […] The data were analyzed using a simple Langmuir 1:1 binding model.

In assay [3] the target is T3, Peptide-6 (human, phosphothreonine 217 (tau 2N4R numbering); SCBiot and dPEG4 at the N-terminus; amide at the C-terminus). As to the kind of experiment: SPR ProteOn, peptide captured, Fab as analyte; range of n=2; Peptide-6 (pT217 only); lower end of n=2 range. On the procedure:
as §1, §2, §4

Assay [4] addresses T3, Peptide-6. The experiment in a line: SPR ProteOn, peptide captured, Fab as analyte; range of n=2; upper end of n=2 range. On the procedure: as §1, §2, §3
For assay [5], the target named is T4, Peptide-2 (human, phosphothreonine 212, phosphothreonine 217 (tau 2N4R numbering); short chain biotin (SCBiot) and dPEG4 at the N-terminus; amide at the C-terminus).
T4 construct: also called pT212/pT217-tau peptide (Peptide-2)
The description is as above. On the procedure: as §1, §2, §3

Assay [6] addresses T1, Peptide-7. The assay is described as above. The method, then:
as §1, §2, §3

The target of assay [7] is T2, Peptide-5. The description is as above. The method, then: as §1, §2, §3
Assay [8] has as its target T5, Peptide-4 (human, phosphoserine 210, phosphothreonine 217 (tau 2N4R numbering); SCBiot and dPEG4 at the N-terminus; amide at the C-terminus). The assay is described as above. On the procedure: as §1, §2, §3
Assay [9] has as its target T3, Peptide-6. As to the kind of experiment: SPR ProteOn, peptide captured, Fab as analyte; range of n=2; lower end of n=2 range. On the procedure: as §1, §2, §3
Assay [10] deals with T4, Peptide-2. The assay is described as above. On the procedure:
as §1, §2, §3

Assay [11] deals with T2, Peptide-5. The assay is described as above. On the procedure: as §1, §2, §3
The target of assay [12] is T5, Peptide-4. Described as above. The method, then: as §1, §2, §3
The target in assay [13] is T6, tau phospho-peptide of the direct ELISA of Example 11.
T6 construct: also called pT217 peptide; pT212/pT217 peptide
The experiment in a line: direct ELISA on plate-coated tau phospho-peptide, Fabs. The method, then: Binding to tau phospho-peptide was analysed by ELISA where peptide (10 ng/mL) was directly coated to the plate overnight. […] After incubation with antibodies, plates were washed and 50 μL per well of HRPO labelled anti-Fab antibody (Jackson Immunoresearch laboratories) (diluted 1:10000 in blocking buffer). After another washing step detection was performed with “One step” TMB (Thermo Scientific) according to the manufacturers' instructions. Plates were analysed in EnVision® 2102 Multilabel Reader (Perkin Elmer, Waltham, Mass., USA). Binding curves were generated using GraphPad Prism7.0 software.

B1: PT3 Fab (B187) (Fab, V domains shown)
VH: EVKLVESGGDLVKPGGSLKLSCAASGFTFSSYAMSWVRQNPEKRLEWVASISKGGNTYYPNSVKGRFTISRDNARNILYLQMSSLRSEDTALYYCARGWGDYGWFAYWGQVTLVTVSA
VL: DIKMTQSPSSMYASLGERVTITCKASQDINRYLNWFQQKPGKSPKTLIYRANRLLDGVPSRFSGSGSGQDYSLTISSLDYEDMGIYYCLQYDEFPLTFGDGTKLELK
notes: Chimeric Fab: mouse variable regions, human IgG1/kappa constant region, 6xHis tag at the C-terminus of the heavy chain; also called mouse parental Fab of PT3
Consider B1, for which the off-rate (koff) in the assay with Peptide-7 [1] was determined as 0.00555 s⁻¹; with Peptide-3, 0.00547 s⁻¹; in the assay with Peptide-6 [4] it was 0.00625 s⁻¹; with Peptide-2 [5], 0.000245 s⁻¹; with Peptide-7 [6], 0.0056 s⁻¹; with Peptide-5 [7] it was 0.00598 s⁻¹. For the same molecule, the koff in the assay with Peptide-4 [8] was determined as 0.00627 s⁻¹; with Peptide-6 [9] it was 0.00606 s⁻¹; with Peptide-5 [11], 0.00569 s⁻¹; with Peptide-4 [12], 0.00619 s⁻¹. The on-rate constant (kon) with Peptide-7 [1] was 422000 M⁻¹ s⁻¹; with Peptide-3, 1.04e+06 M⁻¹ s⁻¹; with Peptide-6 [4] it was 558000 M⁻¹ s⁻¹; with Peptide-2 [5] it was 982000 M⁻¹ s⁻¹; in the assay with Peptide-7 [6] it was 487000 M⁻¹ s⁻¹; in the assay with Peptide-5 [7], 863000 M⁻¹ s⁻¹. Moreover, the kon is 968000 M⁻¹ s⁻¹ with Peptide-4 [8]; 524000 M⁻¹ s⁻¹ in the assay with Peptide-6 [9]; 546000 M⁻¹ s⁻¹ in the assay with Peptide-2 [10]; 545000 M⁻¹ s⁻¹ with Peptide-5 [11]; 922000 M⁻¹ s⁻¹ with Peptide-4 [12]. The dissociation constant (Kd) with Peptide-5 [2] was 8.7 nM; in the assay with Peptide-6 [3], 10.9 to 11.9 nM. Besides, the concentration giving a half-maximal response (EC50 (read off the curve)) in assay [13] is about 0.2 nM.
